Assay results from patent US9555076B2, “Neuregulin based methods and compositions for treating cardiovascular diseases” (Zensun (Shanghai) Science & Technology, Co., Ltd., priority 2002, dated 2017).

Test system: toxic myocarditis caused by Adriamycin in rat
Assay: Serum troponin T (cTnT) level, Adriamycin rat model
Assay type: in vivo, SD rat

B1: rhNRG-1 β: Recombinant human neuregulin fragment of 61 amino acid (SEQ ID NO:4), 3 disulfide bonds, expressed in E. coli (protein, listed as Homo sapiens)
chain: SHLVKCAEKEKTFCVNGGECFMVKDLSNPSRYLCKCPNEFTGDRCQNYVMASFYKAEELYQ
modifications: disulfide (positions not given here)
B1 was tested, and the cTnI (10 μg/kg iv qd × 10 d, (II)) was 8.342 ± 13.537 ng/mL, the cTnI (20 μg/kg iv qd × 10 d, (II)) was 1.677 ± 0.589 ng/mL and the cTnI (40 μg/kg iv qd × 10, (II)) was 0.874 ± 0.108 ng/mL.
